± gives the standard deviation of the averaged measurements.
B1: library; numbered along this chain (parent)
chain: MNIQIGELAKRTACPVVTIRFYEQEGLLPPPGRSRGNFRLYGEEHVERLQFIRHCRSLDMPLSDVRTLLSYRKRPDQDCGEVNMLLDEHIRQVESRIGALLELKHHLVELREACSGARPAQSCGILQGLSDCVCDTRGTTAHPSD

Assays:
[1] = variants of: B1; assay: sfGFP reporter fluorescence (15 h) (µM FITC); higher = higher leak; conditions: library round: Round 1; ligand: none
Method: (§1)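 Cell-free biosensing: 1 µL Echo-assembled CFE reactions with linear PbrR variant templates (5 nM) and pPbrR-sfGFP reporter, with 1 µM Pb, 30 µM Zn or no ligand; endpoint sfGFP fluorescence after 15 h at 30 °C calibrated as µM FITC. Round 1 ML-predicted PbrR mutants; 3 biological replicates.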

[2] = variants of: B1; assay: sfGFP reporter fluorescence (15 h) (µM FITC); higher = stronger transcriptional activation; conditions: library round: Round 1
Method: as §1

| Variant | sfGFP reporter fluorescence [1] | sfGFP reporter fluorescence ([2]; ligand: 1 µM Pb) | sfGFP reporter fluorescence ([2]; ligand: 30 µM Zn) |
| --- | --- | --- | --- |
| R91A K104V | 0.0657 ± 0.0027 | 0.119 ± 0.002 | 0.748 ± 0.029 |
| N83T L110W | 0.0601 ± 0.0015 | 0.0593 ± 0.0024 | 0.0597 ± 0.00097 |
| D131H D135A | 0.065 ± 0.00092 | 0.0777 ± 0.0089 | 0.402 ± 0.014 |
| D131H D135K | 0.0669 ± 0.0015 | 0.0876 ± 0.0064 | 0.579 ± 0.071 |
| D131H D135P | 0.0673 ± 0.0015 | 0.0988 ± 0.017 | 0.455 ± 0.04 |
| I97S K104V | 0.0836 ± 0.0026 | 0.247 ± 0.016 | 0.825 ± 0.05 |
| E94D K104V | 0.0655 ± 0.0018 | 0.101 ± 0.047 | 0.352 ± 0.039 |
| E109H D135A | 0.0629 ± 0.00092 | 0.0832 ± 0.011 | 0.254 ± 0.02 |
| L129I D131C | 0.0646 ± 0.0017 | 0.0641 ± 0.0044 | 0.07 ± 0.0017 |
| I90L D131C | 0.0627 ± 0.00064 | 0.0647 ± 0.0038 | 0.122 ± 0.0066 |
| D87E D131C | 0.0622 ± 0.0025 | 0.0742 ± 0.0072 | 0.134 ± 0.013 |
| D131S D135A | 0.0649 ± 0.0016 | 0.0893 ± 0.0049 | 0.459 ± 0.015 |
| D131S D135P | 0.0663 ± 0.0043 | 0.105 ± 0.0076 | 0.547 ± 0.082 |
| R111I G128I | 0.0666 ± 0.0015 | 0.127 ± 0.0043 | 0.695 ± 0.036 |
| D131S C134V | 0.072 ± 0.005 | 0.126 ± 0.0046 | 1.34 ± 0.045 |
| N83T L107C D135A P143T | 0.1501 ± 0.0015 | 0.642 ± 0.046 | 1.85 ± 0.12 |
| N83T I97S K104G | 0.0612 ± 0.0026 | 0.076 ± 0.0097 | 0.102 ± 0.0094 |
| K104V D135A | 0.0696 ± 0.0011 | 0.123 ± 0.0063 | 0.678 ± 0.073 |
| L107C G128I P143A | 0.52 ± 0.062 | 1.09 ± 0.32 | 2.25 ± 0.092 |
| K104R C134I | 0.0715 ± 0.00073 | 0.152 ± 0.007 | 1.14 ± 0.072 |
| N83T E112F | 0.0601 ± 0.0026 | 0.0667 ± 0.0032 | 0.0853 ± 0.0022 |
| N83T E112M | 0.06267 ± 0.00037 | 0.0849 ± 0.0046 | 0.162 ± 0.0094 |
| N83T E112A | 0.0608 ± 0.0013 | 0.0855 ± 0.0018 | 0.194 ± 0.022 |

| Variant | sfGFP reporter fluorescence [1] | sfGFP reporter fluorescence ([2]; ligand: 1 µM Pb) | sfGFP reporter fluorescence ([2]; ligand: 30 µM Zn) |
| --- | --- | --- | --- |
| N83T E112H | 0.0643 ± 0.0027 | 0.0795 ± 0.0037 | 0.112 ± 0.0026 |
| N83T E112L | 0.0619 ± 0.0034 | 0.0766 ± 0.0039 | 0.125 ± 0.0069 |
| D131A D135A P143A | 0.0687 ± 0.0035 | 0.0917 ± 0.0098 | 0.487 ± 0.043 |
| N83T K104V L107I | 0.0623 ± 0.0016 | 0.0753 ± 0.0068 | 0.112 ± 0.0052 |
| Q127S | 0.0614 ± 0.00076 | 0.0649 ± 0.0047 | 0.118 ± 0.0086 |
| R111V P143T | 0.0627 ± 0.002 | 0.0715 ± 0.0029 | 0.25 ± 0.011 |
| H105A I125A | 0.0647 ± 0.0012 | 0.0639 ± 0.0042 | 0.0656 ± 0.0013 |
| N83T G128I | 0.059 ± 0.00064 | 0.133 ± 0.011 | 0.387 ± 0.038 |
| D131A P143L | 0.07208 ± 0.00056 | 0.0969 ± 0.0024 | 0.559 ± 0.0079 |
| N83T I97N | 0.06206 ± 0.00056 | 0.064 ± 0.0017 | 0.0862 ± 0.0011 |
| N83T I97C | 0.0623 ± 0.0016 | 0.063 ± 0.0038 | 0.109 ± 0.0073 |
| N83T I97T | 0.06157 ± 0.00037 | 0.0658 ± 0.0032 | 0.102 ± 0.0039 |
| N83T I97H | 0.0607 ± 0.0023 | 0.0635 ± 0.00085 | 0.0778 ± 0.0044 |
| N83T I97G | 0.06365 ± 0.00056 | 0.0646 ± 0.0051 | 0.0965 ± 0.0021 |
| N83T K104V | 0.0623 ± 0.0026 | 0.113 ± 0.0044 | 0.249 ± 0.025 |
| I97A K104V | 0.0886 ± 0.0059 | 0.303 ± 0.071 | 1.11 ± 0.076 |
| L129M P143T | 0.0636 ± 0.0011 | 0.0636 ± 0.0025 | 0.07306 ± 0.00056 |
| I125L D131A D135A | 0.065 ± 0.0029 | 0.0661 ± 0.0051 | 0.0699 ± 0.0045 |
| D131A D135P | 0.0689 ± 0.0013 | 0.119 ± 0.0078 | 0.654 ± 0.017 |
| D131A D135S | 0.0699 ± 0.0026 | 0.0955 ± 0.0012 | 0.604 ± 0.0087 |
| D131A D135E | 0.06499 ± 0.00042 | 0.0805 ± 0.0086 | 0.571 ± 0.06 |
| D131A D135A | 0.077 ± 0.0023 | 0.184 ± 0.0043 | 2.2 ± 0.17 |
| N83Y K104V | 0.0651 ± 0.0031 | 0.119 ± 0.024 | 0.0894 ± 0.0065 |

| Variant | sfGFP reporter fluorescence [1] | sfGFP reporter fluorescence ([2]; ligand: 1 µM Pb) | sfGFP reporter fluorescence ([2]; ligand: 30 µM Zn) |
| --- | --- | --- | --- |
| E109L D135R | 0.0677 ± 0.0015 | 0.0959 ± 0.0042 | 0.406 ± 0.061 |
| E109L D135P | 0.0655 ± 0.0031 | 0.102 ± 0.0041 | 0.497 ± 0.027 |
| E94Y P143C | 0.0629 ± 0.0031 | 0.0621 ± 0.0044 | 0.0906 ± 0.0035 |
| L126I D135A | 0.0632 ± 0.0024 | 0.064 ± 0.0037 | 0.152 ± 0.0059 |
| L107C G128I D131C | 0.657 ± 0.018 | 1.26 ± 0.22 | 1.77 ± 0.23 |
| L107C C134I | 0.731 ± 0.13 | 1.15 ± 0.15 | 2.12 ± 0.21 |
| N83T L107C G128M D135A | 0.561 ± 0.031 | 1.15 ± 0.069 | 2.06 ± 0.28 |
| K104V G128M D135A | 0.103 ± 0.0031 | 0.291 ± 0.048 | 1.8 ± 0.11 |
| L107C E109Q G128I | 0.54 ± 0.0092 | 1.09 ± 0.29 | 2.1 ± 0.28 |
| L107C G128I D135S | 2.64 ± 0.069 | 3.9 ± 0.36 | 4.376 ± 0.041 |
| K104A G128M | 0.0657 ± 0.0021 | 0.109 ± 0.01 | 0.897 ± 0.013 |
| L107C E109H | 0.16 ± 0.0068 | 0.673 ± 0.092 | 1.68 ± 0.14 |
| L110I D135A | 0.0608 ± 0.00097 | 0.0588 ± 0.0053 | 1.94 ± 0.1 |
| E109H D131C | 0.0634 ± 0.0019 | 0.0764 ± 0.0062 | 0.159 ± 0.017 |
| D131H P143Y | 0.064 ± 0.0022 | 0.0797 ± 0.012 | 0.383 ± 0.0077 |
| V108E E109H | 0.0605 ± 0.0011 | 0.0687 ± 0.003 | 0.224 ± 0.01 |
| N83T V108N | 0.06328 ± 0.00021 | 0.0698 ± 0.0061 | 0.132 ± 0.0091 |
| L107E G128I | 0.0629 ± 0.0025 | 0.0633 ± 0.0023 | 0.0621 ± 0.0022 |
| N83T V108L D131C | 0.06218 ± 0.00042 | 0.0745 ± 0.0076 | 0.0858 ± 0.0057 |
| D87S | 0.0624 ± 0.0015 | 0.0699 ± 0.0015 | 0.162 ± 0.017 |
| D131F D135A | 0.0667 ± 0.0016 | 0.071 ± 0.0022 | 0.345 ± 0.018 |
| N83T L107C | 0.1001 ± 0.00064 | 0.518 ± 0.13 | 1.53 ± 0.15 |
| N83T L107Y | 0.0672 ± 0.0015 | 0.0739 ± 0.0066 | 0.0947 ± 0.0046 |

| Variant | sfGFP reporter fluorescence [1] | sfGFP reporter fluorescence ([2]; ligand: 1 µM Pb) | sfGFP reporter fluorescence ([2]; ligand: 30 µM Zn) |
| --- | --- | --- | --- |
| N83T L107E | 0.0668 ± 0.00076 | 0.0635 ± 0.0022 | 0.0662 ± 0.0024 |
| N83T L107F | 0.06096 ± 0.00056 | 0.059 ± 0.002 | 0.0604 ± 0.0011 |
| D131M D135A | 0.0704 ± 0.005 | 0.0869 ± 0.0074 | 0.573 ± 0.039 |
| E109L G128H P143L | 0.0639 ± 0.00092 | 0.0852 ± 0.0089 | 0.204 ± 0.018 |
| N83T L107C C114R G128M | 0.063 ± 0.0015 | 0.0605 ± 0.0029 | 0.06108 ± 0.00021 |
| L107C R111L G128M | 0.333 ± 0.022 | 1.15 ± 0.33 | 2.19 ± 0.32 |
| N83V C134S | 0.0579 ± 0.00097 | 0.0667 ± 0.0035 | 0.055 ± 0.00064 |
| D131A D135P P143W | 0.0718 ± 0.0029 | 0.122 ± 0.0042 | 0.497 ± 0.081 |
| L107C G128H | 0.132 ± 0.0069 | 0.409 ± 0.075 | 1.66 ± 0.14 |
| N83T V108L D131C P143T | 0.06365 ± 0.00056 | 0.0753 ± 0.002 | 0.0975 ± 0.0026 |
| N83T L85R | 0.061 ± 0.0026 | 0.0607 ± 0.0035 | 0.0601 ± 0.0029 |
| N83T L85A | 0.06145 ± 0.00056 | 0.0596 ± 0.0031 | 0.0602 ± 0.00076 |
| N83T L85M | 0.0622 ± 0.0036 | 0.0669 ± 0.0024 | 0.105 ± 0.003 |
| R111L G128I | 0.0666 ± 0.0024 | 0.0985 ± 0.0091 | 0.528 ± 0.024 |
| R111L G128P | 0.0584 ± 0.0015 | 0.0568 ± 0.0028 | 0.0542 ± 0.0045 |
| L107I P143R | 0.06365 ± 0.00021 | 0.0775 ± 0.0077 | 0.473 ± 0.02 |
| E94C K104V | 0.0704 ± 0.0013 | 0.072 ± 0.0039 | 0.184 ± 0.002 |
| I90L G128T D135A | 0.0632 ± 0.00092 | 0.0679 ± 0.0048 | 0.266 ± 0.031 |
| N83W P143A | 0.0616 ± 0.0013 | 0.0688 ± 0.0011 | 0.0621 ± 0.0015 |
| L110I R111A | 0.0628 ± 0.00092 | 0.0635 ± 0.0042 | 0.415 ± 0.045 |
